Laboratory results published in US20130142788A1 (published 2013).
* marks the point of attachment. Biotin = O=C1N[C@H]2[C@H](CS[C@H]2CCCCC(=O)*)N1

Experiments:
Assay in all cases: SRU BIND biosensor, peptides captured on streptavidin plate
[1] = target: T1, myostatin artificial peptide No 35 (SGSGSAGPCCTPTKMSPI) (cysteine pairing not given here)
T1 construct: also called Peptide 35
T1 peptide: Biotin-SGSGSAGPCCTPTKMSPI-NH2
Procedure: (§1) Work was carried out on an SRU BIND reader (SRU Biosystems). A streptavidin biosensor plate was washed, a baseline reading taken, and biotinylated peptides captured onto the streptavidin coated biosensor plate. The plate was washed again, and a new baseline reading taken, antibody was then added and binding monitored.

[2] = target: T2, myostatin artificial peptide No 3 (SGSGDCDEHSTESRCCRY) (cysteine pairing not given here)
T2 construct: also called Peptide 3
T2 peptide: Biotin-SGSGDCDEHSTESRCCRY-NH2
Procedure: as §1

[3] = target: T3, myostatin artificial peptide No 39 (SGSGTKMSPINMLYFNGK) (HELM PEPTIDE1{[O=C1N[C@H]2[C@H](CS[C@H]2CCCCC(=O)[*:2])N1].S.G.S.G.T.K.M.S.P.I.N.M.L.Y.F.N.G.K.[am]}$$$$V2.0; SMILES …)
T3 construct: also called Peptide 39
T3 peptide: SGSGTKMSPINMLYFNGK
Procedure: as §1

[4] = target: T4, myostatin artificial peptide No 43 (SGSGLYFNGKEQIIYGKI) (HELM PEPTIDE1{[O=C1N[C@H]2[C@H](CS[C@H]2CCCCC(=O)[*:2])N1].S.G.S.G.L.Y.F.N.G.K.E.Q.I.I.Y.G.K.I.[am]}$$$$V2.0; SMILES …)
T4 construct: also called Peptide 43
T4 peptide: SGSGLYFNGKEQIIYGKI
Procedure: as §1

[5] = target: T5, myostatin artificial peptide No 47 (SGSGIIYGKIPAMVVDRC) (HELM PEPTIDE1{[O=C1N[C@H]2[C@H](CS[C@H]2CCCCC(=O)[*:2])N1].S.G.S.G.I.I.Y.G.K.I.P.A.M.V.V.D.R.C.[am]}$$$$V2.0; SMILES …)
T5 construct: also called Peptide 47
T5 peptide: SGSGIIYGKIPAMVVDRC
Procedure: as §1

[6] = target: T6, myostatin artificial peptide No 25 (SGSGFVFLQKYPHTHLVH) (HELM PEPTIDE1{[O=C1N[C@H]2[C@H](CS[C@H]2CCCCC(=O)[*:2])N1].S.G.S.G.F.V.F.L.Q.K.Y.P.H.T.H.L.V.H.[am]}$$$$V2.0; SMILES …)
T6 construct: also called Peptide 25
T6 peptide: SGSGFVFLQKYPHTHLVH
Procedure: as §1

[7] = target: T7, myostatin artificial peptide No 45 (SGSGGKEQIIYGKIPAMV) (HELM PEPTIDE1{[O=C1N[C@H]2[C@H](CS[C@H]2CCCCC(=O)[*:2])N1].S.G.S.G.G.K.E.Q.I.I.Y.G.K.I.P.A.M.V.[am]}$$$$V2.0; SMILES …)
T7 construct: also called Peptide 45
T7 peptide: SGSGGKEQIIYGKIPAMV
Procedure: as §1

[8] = target: T8, myostatin artificial peptide No 21 (SGSGNYCSGECEFVFLQK) (cysteine pairing not given here)
T8 construct: also called Peptide 21
T8 peptide: Biotin-SGSGNYCSGECEFVFLQK-NH2
Procedure: as §1

[9] = target: T9, myostatin artificial peptide No 37 (SGSGCCTPTKMSPINMLY) (cysteine pairing not given here)
T9 construct: also called Peptide 37
T9 peptide: Biotin-SGSGCCTPTKMSPINMLY-NH2
Procedure: as §1

[10] = target: T10, myostatin artificial peptide No 7 (SGSGSRCCRYPLTVDFEA) (cysteine pairing not given here)
T10 construct: also called Peptide 7
T10 peptide: Biotin-SGSGSRCCRYPLTVDFEA-NH2
Procedure: as §1

[11] = target: T11, myostatin artificial peptide No 27 (SGSGQKYPHTHLVHQANP) (HELM PEPTIDE1{[O=C1N[C@H]2[C@H](CS[C@H]2CCCCC(=O)[*:2])N1].S.G.S.G.Q.K.Y.P.H.T.H.L.V.H.Q.A.N.P.[am]}$$$$V2.0; SMILES …)
T11 construct: also called Peptide 27
T11 peptide: SGSGQKYPHTHLVHQANP
Procedure: as §1

[12] = target: T12, myostatin artificial peptide No 9 (SGSGRYPLTVDFEAFGWD) (HELM PEPTIDE1{[O=C1N[C@H]2[C@H](CS[C@H]2CCCCC(=O)[*:2])N1].S.G.S.G.R.Y.P.L.T.V.D.F.E.A.F.G.W.D.[am]}$$$$V2.0; SMILES …)
T12 construct: also called Peptide 9
T12 peptide: SGSGRYPLTVDFEAFGWD
Procedure: as §1

[13] = target: T13, myostatin artificial peptide No 11 (SGSGTVDFEAFGWDWIIA) (HELM PEPTIDE1{[O=C1N[C@H]2[C@H](CS[C@H]2CCCCC(=O)[*:2])N1].S.G.S.G.T.V.D.F.E.A.F.G.W.D.W.I.I.A.[am]}$$$$V2.0; SMILES …)
T13 construct: also called Peptide 11
T13 peptide: SGSGTVDFEAFGWDWIIA
Procedure: as §1

[14] = target: T14, myostatin artificial peptide No 15 (SGSGWDWIIAPKRYKANY) (HELM PEPTIDE1{[O=C1N[C@H]2[C@H](CS[C@H]2CCCCC(=O)[*:2])N1].S.G.S.G.W.D.W.I.I.A.P.K.R.Y.K.A.N.Y.[am]}$$$$V2.0; SMILES …)
T14 construct: also called Peptide 15
T14 peptide: SGSGWDWIIAPKRYKANY
Procedure: as §1

[15] = target: T15, myostatin artificial peptide No 31 (SGSGVHQANPRGSAGPCC) (cysteine pairing not given here)
T15 construct: also called Peptide 31
T15 peptide: Biotin-SGSGVHQANPRGSAGPCC-NH2
Procedure: as §1

[16] = target: T16, myostatin artificial peptide No 19 (SGSGRYKANYCSGECEFV) (cysteine pairing not given here)
T16 construct: also called Peptide 19
T16 peptide: Biotin-SGSGRYKANYCSGECEFV-NH2
Procedure: as §1

[17] = target: T17, myostatin artificial peptide No 29 (SGSGHTHLVHQANPRGSA) (HELM PEPTIDE1{[O=C1N[C@H]2[C@H](CS[C@H]2CCCCC(=O)[*:2])N1].S.G.S.G.H.T.H.L.V.H.Q.A.N.P.R.G.S.A.[am]}$$$$V2.0; SMILES …)
T17 construct: also called Peptide 29
T17 peptide: SGSGHTHLVHQANPRGSA
Procedure: as §1

Measured: binding result

B1: mouse monoclonal antibody 10B3 (antibody, mouse IgG2a, V domains shown)
VH: EVQLQQSGPELVKPGASVKISCKASGYSFTGYFMHWVKQSHGNILDWIGNIYPYNGVSNYNQRFKAKATLTVDKSSSTAYMELRSLTSEDSAVYYCARRYYYGTGPADWYFDVWGTGTTVTVSS
VL: DIKMTQSPSSMYASLRERVTITCKASQDINSYLSWFQQKPGKSPKTLIYRANRLVDGVPSRFSGSGSGQDYSLTISSLEYEDMGIYYCLQCDEFPLTFGAGTKLELK
notes: Murine IgG2a/k; also called 10B3 mouse parental; parental 10B3
no binding: [1] | [2] | [3] | [4] | [5] | [6] | [7] | [8] | [9] | [10] | [11] | [12] | [13] | [14] | [15] | [16] | [17]
